The record followed here is patent US6759384 (AVENTIS PHARMACEUTICALS, dated 2004).

The target in the assay is human factor Xa (Enzyme Research Laboratories, Inc.) (human, UniProt P00742 41-179; P00742 235-488, limits assumed). Description: chromogenic FXa inhibition. The method in brief:
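Human FXa (0.5 nM) preincubated 10 min with inhibitor in TBS-P (pH 7.8, 200 mM NaCl, PEG-8000), then S-2765 added (140 μM). Initial hydrolysis rate read at 405 nm, 25° C.; IC50 by linear regression of relative rate vs log concentration.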

Starred links: 1 amine or outer side, 2 acyl side, 3 side chain; linkers in the order of their positions; H or OH if unused. Non-standard residues stand in square brackets, D forms with d. No end group written: not given here. *: point of attachment. (iBu)Y = N-alpha-isobutyl-tyrosine, CC(C)CN([C@@H](Cc1ccc(O[*:3])cc1)C(=O)[*:2])[*:1]; Orn(N^δ-C3H7N) = ornithine-derived dimethylamidinium (N-delta-C3H7N); Dab(N^γ-C3H7N) = Dab-derived dimethylamidinium (N-gamma-C3H7N); dTyr(Me) = COc1ccc(C[C@@H](N[*:1])C(=O)[*:2])cc1; dNMeY = CN[C@H](Cc1ccc(O)cc1)C(=O)O; Tos = Cc1ccc(S(=O)(=O)*)cc1; Tfa = O=C(C(F)(F)F)*; Sar = CNCC(=O)O

Sequence of human factor Xa (Enzyme Research Laboratories, Inc.) (P00742 41-179 limits assumed, chain 1 of 2): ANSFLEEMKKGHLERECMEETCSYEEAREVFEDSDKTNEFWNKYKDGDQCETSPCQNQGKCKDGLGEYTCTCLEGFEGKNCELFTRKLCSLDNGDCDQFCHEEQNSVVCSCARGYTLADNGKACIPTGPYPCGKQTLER
Sequence of human factor Xa (Enzyme Research Laboratories, Inc.) (P00742 235-488 limits assumed, chain 2 of 2): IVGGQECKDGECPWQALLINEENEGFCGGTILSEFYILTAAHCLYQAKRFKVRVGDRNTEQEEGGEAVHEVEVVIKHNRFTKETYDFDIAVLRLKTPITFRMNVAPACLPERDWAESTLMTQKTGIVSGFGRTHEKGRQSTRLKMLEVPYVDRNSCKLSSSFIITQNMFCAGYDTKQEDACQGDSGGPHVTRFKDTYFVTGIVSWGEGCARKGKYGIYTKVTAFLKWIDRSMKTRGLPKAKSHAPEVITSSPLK

B1: (2-Me-nBu)Y-I-R-L-P-NH2 (peptide)
peptide: XIRLP
modifications: N-(2-Me-nBu) on Y1; C-term NH2
The Ki is a measure of affinity in units of concentration, obtained from inhibition or displacement. Read a low Ki as tighter binding. B1 registered a Ki below 100 µM.

B2: (2-Me-nPentyl)Y-I-R-L-P-NH2 (peptide)
peptide: XIRLP
modifications: N-(2-Me-nPentyl) on Y1; C-term NH2
Take B2: the Ki was below 100 µM.

B3: Y(3,5-Br)-I-R-L-P-NH2 (peptide)
peptide: XIRLP
modifications: Y1=Y(3,5-Br); C-term NH2
For the molecule B3, the Ki was below 100 µM.

B4: Ac-(2Et-nBu)Y-I-R-L-P-NH2 (peptide)
peptide: XIRLP
modifications: N-term Ac; N-(2Et-nBu) on Y1; C-term NH2
In turn, B4 had a Ki below 100 µM.

B5: Ac-(2-CF3-Bzl)Y(SO3H)-I-R-L-P-NH2 (peptide)
peptide: XIRLP
modifications: N-term Ac; N-(2-CF3-Bzl) on Y1; Y1=Y(SO3H); C-term NH2
In the case of B5, the Ki was below 100 µM.

B6: Ac-(3,3-DiMe-nPentyl)Y(SO3H)-I-R-L-P-NH2 (peptide)
peptide: XIRLP
modifications: N-term Ac; N-(3,3-DiMe-nPentyl) on Y1; Y1=Y(SO3H); C-term NH2
The molecule B6 gave a Ki below 100 µM.

B7: y(Me)-I-R-L-P-NH2 (peptide)
peptide: [dTyr(Me)]IRLP-NH2
B7 registered a Ki below 100 µM.

B8: Y(3,5-I)-I-R-L-P-NH2 (peptide)
peptide: XIRLP
modifications: Y1=Y(3,5-I); C-term NH2
Take B8: the Ki is below 100 µM.

B9: Y-I-R-V-M-N-H-R-NH2 (peptide)
peptide: YIRVMNHR-NH2
Molecule B9 came in with a Ki below 100 µM.

B10: (2-CF3-Bzl)Y-I-R-L-P-NH2 (peptide)
peptide: XIRLP
modifications: N-(2-CF3-Bzl) on Y1; C-term NH2
Molecule B10 showed a Ki below 100 µM.

B11: Ac-(Cyclopropyl-CH2)Y-I-R-L-P-NH2 (peptide)
peptide: XIRLP
modifications: N-term Ac; N-(Cyclopropyl-CH2) on Y1; C-term NH2
With B11, the Ki is below 100 µM.

B12: Y-I-R-V-A-Q-L-Y-NH2 (peptide)
peptide: YIRVAQLY-NH2
B12 yielded a Ki below 100 µM.

B13: Ac-(3,3-DiMe-nBu)Y-I-R-L-P-NH2 (peptide)
peptide: XIRLP
modifications: N-term Ac; N-(3,3-DiMe-nBu) on Y1; C-term NH2
As to B13, the Ki was below 100 µM.

B14: Y-I-R-L-M-E-M-T-NH2 (peptide)
peptide: YIRLMEMT-NH2
Molecule B14 gave a Ki below 100 µM.

B15: Ac-(2,3-DiMe-nPentyl)Y-I-R-L-P-NH2 (peptide)
peptide: XIRLP
modifications: N-term Ac; N-(2,3-DiMe-nPentyl) on Y1; C-term NH2
B15 showed a Ki below 100 µM.

B16: W-F-R-E-M-G-G-G-G-G-NH2 (peptide)
peptide: WFREMGGGGG-NH2
Molecule B16 gave a Ki below 100 µM.

B17: Y-I-R-I-Y-E-R-E-NH2 (peptide)
peptide: YIRIYERE-NH2
For the molecule B17, the Ki was below 100 µM.

B18: Y-L-R-F-P-NH2 (peptide)
peptide: YLRFP-NH2
Molecule B18 had a Ki below 100 µM.

B19: (Me)y-I-R-L-P-NH2 (peptide)
peptide: [dNMeY]IRLP-NH2
The molecule B19 returned a Ki below 100 µM.

B20: W-L-R-L-A-NH2 (peptide)
peptide: WLRLA-NH2
Turning to B20, the Ki was below 100 µM.

B21: Ac-(Et-CH═C(CH3)-CH2)Y(SO3H)-I-R-L-P-NH2 (peptide)
peptide: XIRLP
modifications: N-term Ac; N-(Et-CH═C(CH3)-CH2) on Y1; Y1=Y(SO3H); C-term NH2
In the case of B21, the Ki was below 100 µM.

B22: Ac-(2,3-DiMe-nPentyl)Y(SO3H)-I-R-L-P-NH2 (peptide)
peptide: XIRLP
modifications: N-term Ac; N-(2,3-DiMe-nPentyl) on Y1; Y1=Y(SO3H); C-term NH2
For B22, the Ki was below 100 µM.

B23: Y-I-R-L-NH2 (peptide)
peptide: YIRL-NH2
B23 came in with a Ki below 100 µM.

B24: Y-I-R-L-A-A-F-NH2 (peptide)
peptide: YIRLAAF-NH2
Regarding B24, the Ki is below 100 µM.

B25: Tfa-y-I-R-L-P-NH2 (peptide)
peptide: Tfa-[dY]IRLP-NH2
Take B25: the Ki is below 100 µM.

B26: Tfa-(iBu)Y-I-Orn(N^δ-C3H7N)-L-P-NH2 (peptide)
peptide: Tfa-[(iBu)Y]I[Orn(N^δ-C3H7N)]LP-NH2
In turn, B26 returned a Ki below 100 µM.

B27: T-F-G-Y-I-R-K-A-NH2 (peptide)
peptide: TFGYIRKA-NH2
B27 had a Ki below 100 µM.

B28: Y-I-R-L-A-A-F-T-NH2 (peptide)
peptide: YIRLAAFT-NH2
The molecule B28 registered a Ki below 100 µM.

B29: Tfa-(iBu)Y-I-Dab(N^γ-C3H7N)-L-P-NH2 (peptide)
peptide: Tfa-[(iBu)Y]I[Dab(N^γ-C3H7N)]LP-NH2
As for B29, the Ki is below 100 µM.

B30: (2-Et-nBu)Y-I-R-L-P-NH2 (peptide)
peptide: XIRLP
modifications: N-(2-Et-nBu) on Y1; C-term NH2
B30 registered a Ki below 100 µM.

B31: W-I-R-N-P-NH2 (peptide)
peptide: WIRNP-NH2
Molecule B31 registered a Ki below 100 µM.

B32: W-I-R-T-P-NH2 (peptide)
peptide: WIRTP-NH2
B32: the Ki was below 100 µM.

B33: w-L-R-L-A-NH2 (peptide)
peptide: [dW]LRLA-NH2
modifications: N-terminus assumed
SMILES: CC(C)C[C@H](NC(=O)[C@H](N)Cc1c[nH]c2ccccc12)C(=O)N[C@@H](CCCNC(=N)N)C(=O)N[C@@H](CC(C)C)C(=O)N[C@@H](C)C(N)=O
B33 registered a Ki below 100 µM.

B34: Ac-(1,2,3,6-4H-Bzl)Y-I-R-L-P-NH2 (peptide)
peptide: XIRLP
modifications: N-term Ac; N-(1,2,3,6-4H-Bzl) on Y1; C-term NH2
Molecule B34 had a Ki below 100 µM.

B35: Ac-(1,2,3,6-4H-Bzl)Y(SO3H)-I-R-L-P-NH2 (peptide)
peptide: XIRLP
modifications: N-term Ac; N-(1,2,3,6-4H-Bzl) on Y1; Y1=Y(SO3H); C-term NH2
The molecule B35 showed a Ki below 100 µM.

B36: Y-I-R-L-A-A-NH2 (peptide)
peptide: YIRLAA-NH2
B36 returned a Ki below 100 µM.

B37: Ph-CH2CH2CO-I-R-L-A-NH2 (peptide)
peptide: {Ph‑CH2CH2CO}-IRLA-NH2
B37 gave a Ki below 100 µM.

B38: Ac-(Cyclopropyl-CH2)Y(SO3H)-I-R-L-P-NH2 (peptide)
peptide: XIRLP
modifications: N-term Ac; N-(Cyclopropyl-CH2) on Y1; Y1=Y(SO3H); C-term NH2
Take B38: the Ki was below 100 µM.

B39: Y-I-R-L-P-G-L-L-NH2 (peptide)
peptide: YIRLPGLL-NH2
For B39, the inhibitory constant (Ki) was below 100 µM.

B40: Y-I-R-E-F-S-D-Y-NH2 (peptide)
peptide: YIREFSDY-NH2
Take B40: the Ki was below 100 µM.

B41: Tos-G-I-R-V-Sar-NH2 (peptide)
peptide: Tos-GIRV[Sar]-NH2
SMILES: CC[C@H](C)[C@H](NC(=O)CNS(=O)(=O)c1ccc(C)cc1)C(=O)N[C@@H](CCCNC(=N)N)C(=O)N[C@H](C(=O)N(C)CC(N)=O)C(C)C
B41 came in with a Ki below 100 µM.

B42: W-L-R-L-A-G-G-G-G-G-NH2 (peptide)
peptide: WLRLAGGGGG-NH2
Consider B42, for which the Ki was below 100 µM.

B43: W-L-R-V-A-G-G-G-G-G-NH2 (peptide)
peptide: WLRVAGGGGG-NH2
As to B43, the Ki is below 100 µM.

B44: Ac-(2-CF3-Bzl)Y-I-R-L-P-NH2 (peptide)
peptide: XIRLP
modifications: N-term Ac; N-(2-CF3-Bzl) on Y1; C-term NH2
For the molecule B44, the Ki was below 100 µM.

B45: Ac-(2-Me-nPentyl)Y(SO3H)-I-R-L-P-NH2 (peptide)
peptide: XIRLP
modifications: N-term Ac; N-(2-Me-nPentyl) on Y1; Y1=Y(SO3H); C-term NH2
Turning to B45, the Ki is below 100 µM.

B46: Ac-(2-Me-Bzl)Y-I-R-L-P-NH2 (peptide)
peptide: XIRLP
modifications: N-term Ac; N-(2-Me-Bzl) on Y1; C-term NH2
For the molecule B46, the Ki was below 100 µM.

B47: (3,3-DiMe-nBu)Y-I-R-L-P-NH2 (peptide)
peptide: XIRLP
modifications: N-(3,3-DiMe-nBu) on Y1; C-term NH2
Molecule B47 returned a Ki below 100 µM.

B48: (Chx-CH2)Y-I-R-L-P-NH2 (peptide)
peptide: XIRLP
modifications: N-(Chx-CH2) on Y1; C-term NH2
The molecule B48 yielded a Ki below 100 µM.

B49: Ac-(3,5,5-Me-3-nHexyl)Y-I-R-L-P-NH2 (peptide)
peptide: XIRLP
modifications: N-term Ac; N-(3,5,5-Me-3-nHexyl) on Y1; C-term NH2
Turning to B49, the Ki was below 100 µM.

B50: Tfa-Y-I-R-L-P-NH2 (peptide)
peptide: Tfa-YIRLP-NH2
The molecule B50 showed a Ki below 100 µM.

B51: Ac-(3,3-DiMe-nBu)Y(SO3H)-I-R-L-P-NH2 (peptide)
peptide: XIRLP
modifications: N-term Ac; N-(3,3-DiMe-nBu) on Y1; Y1=Y(SO3H); C-term NH2
For B51, the Ki is below 100 µM.

B52: Tfa-Y(Me)I-R-L-P-NH2 (peptide)
peptide: XIRLP
modifications: N-term Tfa; Y1=Y(Me) O-methyl tyrosine; C-term NH2
B52 had a Ki below 100 µM.

B53: Y-I-R-L-T-K-M-W-NH2 (peptide)
peptide: YIRLTKMW-NH2
With B53, the Ki was below 100 µM.

B54: Y-I-R-Y-R-N-P-I-NH2 (peptide)
peptide: YIRYRNPI-NH2
Turning to B54, the Ki was below 100 µM.

B55: Ac-(2-Me-nBu)Y(SO3H)-I-R-L-P-NH2 (peptide)
peptide: XIRLP
modifications: N-term Ac; N-(2-Me-nBu) on Y1; Y1=Y(SO3H); C-term NH2
B55 returned a Ki below 100 µM.

B56: S-Y-I-R-L-P-NH2 (peptide)
peptide: SYIRLP-NH2
Take B56: the Ki is below 100 µM.

B57: (2-Me-Bzl)Y-I-R-L-P-NH2 (peptide)
peptide: XIRLP
modifications: N-(2-Me-Bzl) on Y1; C-term NH2
Molecule B57 yielded a Ki below 100 µM.

B58: Y-I-R-L-P-NH2 (peptide)
peptide: YIRLP-NH2
The molecule B58 had a Ki below 100 µM.

B59: Y-R-Y-P-R-D-R-N-NH2 (peptide)
peptide: YRYPRDRN-NH2
B59 yielded an inhibition constant (Ki) below 100 µM.

B60: Ac-(2-Me-Bzl)Y(SO3H)-I-R-L-P-NH2 (peptide)
peptide: XIRLP
modifications: N-term Ac; N-(2-Me-Bzl) on Y1; Y1=Y(SO3H); C-term NH2
Consider B60, for which the Ki is below 100 µM.

B61: Ac-(Et-CH═C(CH3)-CH2)Y-I-R-L-P-NH2 (peptide)
peptide: XIRLP
modifications: N-term Ac; N-(Et-CH═C(CH3)-CH2) on Y1; C-term NH2
In turn, B61 registered a Ki below 100 µM.
